Sequences and labels used below:
B1: T13L (protein)
chain: MPQEARTPQQQVLADEVGDWYDKFGEVYHLTLGESVHCGLWFPPDAPVPQDMELVTMSSQAQDRFTDYLIETLDPKAGQHLLDIGCGTGRPALKAARQRGIAVTGVAVSKEQIAAANRLAAGHGLTERLTFEVADAMRLPYEDESFDCAWAIESLDHMDRAKALGEAWRVLKPGGDLLVAEEVVTEELTEPETALFETLFALNVPPRLGEFFDIVSGAGFHTLSLKDLSADLAMTMNVFALGVYSRRAEFTERFGAEFVDGLLAGLGSAQETVIRKTRFFMATLRKPAV
modifications: Modified from pMT1
B2: M137D (protein)
chain: B1 chain with L13T, M137D
modifications: Modified from pMT1
B3: S268R (protein)
chain: B1 chain with L13T, S268R
modifications: Modified from pMT1
B4: A14R (protein)
chain: B1 chain with L13T, A14R
modifications: Modified from pMT1
B5: M137G (protein)
chain: B1 chain with L13T, M137G
modifications: Modified from pMT1
B6: S268K (protein)
chain: B1 chain with L13T, S268K
modifications: Modified from pMT1
B7: T13M (protein)
chain: B1 chain with L13M
modifications: Modified from pMT1
B8: T13A (protein)
chain: B1 chain with L13A
modifications: Modified from pMT1
B9: K94V (protein)
chain: B1 chain with L13T, K94V
modifications: Modified from pMT1
B10: L129C (protein)
chain: B1 chain with L13T, L129C
modifications: Modified from pMT1
B11: T13G (protein)
chain: B1 chain with L13G
modifications: Modified from pMT1
B12: A14P (protein)
chain: B1 chain with L13T, A14P
modifications: Modified from pMT1
B13: E192S (protein)
chain: B1 chain with L13T, E192S
modifications: Modified from pMT1
B14: M137H (protein)
chain: B1 chain with L13T, M137H
modifications: Modified from pMT1
B15: T13Q (protein)
chain: B1 chain with L13Q
modifications: Modified from pMT1
B16: L129K (protein)
chain: B1 chain with L13T, L129K
modifications: Modified from pMT1
B17: S268Q (protein)
chain: B1 chain with L13T, S268Q
modifications: Modified from pMT1
B18: S268L (protein)
chain: B1 chain with L13T, S268L
modifications: Modified from pMT1
B19: A269L (protein)
chain: B1 chain with L13T, A269L
modifications: Modified from pMT1
B20: M137N (protein)
chain: B1 chain with L13T, M137N
modifications: Modified from pMT1
B21: A14L (protein)
chain: B1 chain with L13T, A14L
modifications: Modified from pMT1
B22: A14M (protein)
chain: B1 chain with L13T, A14M
modifications: Modified from pMT1
B23: L195I (protein)
chain: B1 chain with L13T, L195I
modifications: Modified from pMT1
B24: A14T (protein)
chain: B1 chain with L13T, A14T
modifications: Modified from pMT1
B25: L195V (protein)
chain: B1 chain with L13T, L195V
modifications: Modified from pMT1
B26: L129V (protein)
chain: B1 chain with L13T, L129V
modifications: Modified from pMT1
B27: M137S (protein)
chain: B1 chain with L13T, M137S
modifications: Modified from pMT1
B28: A14G (protein)
chain: B1 chain with L13T, A14G
modifications: Modified from pMT1
B29: E127G (protein)
chain: B1 chain with L13T, E127G
modifications: Modified from pMT1
B30: M137A (protein)
chain: B1 chain with L13T, M137A
modifications: Modified from pMT1
B31: K94R (protein)
chain: B1 chain with L13T, K94R
modifications: Modified from pMT1
B32: P191K (protein)
chain: B1 chain with L13T, P191K
modifications: Modified from pMT1

32 molecules from patent publication US20240240209A1, “SYNTHESIS OF ENANTIOPURE CIS-A-IRONE FROM A RENEWABLE CARBON SOURCE” (Agency for Science, Technology and Research, priority 2021, published 2024) can be followed below.

Numbering of substitutions follows the chain as printed.

A short description of this test: In-vivo cis-α-irone production screening of pMT7 and pMT12 mutants. The format is cell-based, Escherichia coli. The conditions noted are these: mutations made to pMT12; normalized to pMT12 (=1). From the text:
Q60 was identified as another possible mutation site.
FIGS. 24a and 24b show the in-vivo and in-vitro cis-α-irone production of other possible single mutations to pMT12. The in-vitro results in FIG. 24b validate the mutations and in-vivo results in FIG. 24a. The mutations in FIG. 24 include Q11H (SEQ ID No. 23), V12R (SEQ ID No. 24), A95C (SEQ ID No. 25), H123Q (SEQ ID No. 26), E127T (SEQ ID No. 27), M137T (SEQ ID No. 28), D176V (SEQ ID No. 29), D176Y (SEQ ID No. 30). P191S (SEQ ID No. 31), P191V (SEQ ID No. 32), F212L (SEQ ID No. 33), S268H (SEQ ID No. 34), AND T272A (SEQ ID No. 35). The screening results in FIGS. 24 and 25 are semi-quantitative to identify beneficial mutants that give greater than one-fold change of irone production as compared to pMT12.
FIGS. 25a to 25c (and Table 4) show the in-vivo testing results of other possible mutations that may be made to pMT12 to improve its in-vivo production of cis-α-irone. FIGS. 25a to 25c each include two dotted lines to account for a 10% error bar to show the normalized fold change of 0.9 and 1.1.
The four plasmids were transformed into E. coli BL21 (DE3), ΔaroA, ΔaroB, ΔaroC, ΔserC or E. coli BL21 (DE3), ΔaroA, ΔaroB, ΔaroC, ΔserC, ΔmetJ strains and plated on Agar plate containing LB media (10 g, tryptone. 5 g, yeast extract. 10 g, NaCl) supplemented with appropriate antibiotics (100 mg/L ampicillin, 34 mg/L chloramphenicol, 50 mg/L kanamycin, and 100 mg/L spectinomycin). One colony was picked and inoculate into LB media with antibiotics. 1% of overnight culture was inoculated into 1 ml fresh auto-inducing chemically defined media. The chemical media contains carbon source solution: 0.5 g/L glucose, 10 g/L glycerol; inducer: 30 mM lactose and base media: 2 g/L ammonium sulfate, 4.2 g/L KH2PO4, 11.24 g/L K2HPO4, 1.7 g/L citric acid, 0.5 g/L MgSO4, and 10 mL/L trace element solution. The trace element solution (100×) contained 0.25 g/L CoCl2·6H2O, 1.5 g/L MnSO4·4H2O, 0.15 g/L CuSO4·2H2O, 0.3 g/L H3BO3, 0.25 g/L Na2MoO4·2H2O, 0.8 g/L Zn(CH3COO)2, 5 g/L Fe(III) citrate, and 0.84 g/L ethylenediaminetetra-acetic acid (EDTA) at pH 8.0. The culture was grown at 28° C. for 3 days and the products were extracted with 1 ml hexane for GCMS analysis. An example of a fed-batch process for α-ionone Is briefly described, overnight culture was inoculated into 2 L chemical media comprising the base media and 5 g/L glucose, at 37° C. and 30% DO. pH was controlled at 7 with base solution (14% ammonia and 0.5 M NaOH). Feed media (500 g/L glucose and 5 g/L MgSO4) was added into bioreactor once OD600 reached 5, at a rate of 7.15-25.75 g/h glucose for about 4-5 h until OD600 reached ˜30-40. Subsequently, 0.1 mM IPTG was added to induce the production, and feeding rate was kept at a constant rate of 10 g/h glucose, and the temperature was reduced to 30° C. DO was adjusted to 2% or 10%. Feeding was stopped at 113 h when 2 L feeding media was finished, but the culture was further incubated for 24 h. To capture the evaporated products, the exhaust was connected to 25 ml sunflower oil.
Take B1: the “Fold change in in-vivo cis-α-irone production” value (from here on “Fold change”) amounted to 0.97.
Regarding B2, the “Fold change” value is on record as 1.13.
The figure for B3 is 1.23.
The figure for B4 is 0.93; for B5 it is 1.15.
The figure for B6 is 1.35.
Consider B7, for which the “Fold change” value came to 0.97.
With B8, the “Fold change” value is reported as 0.91.
Regarding B9, the “Fold change” value is 0.84.
For B10 the value was 1.08; for B11, 0.91.
The figure for B12 is 0.92; for B13 it is 0.97; for B14 it is 1.11.
For B15 the value was 0.93; for B16, 1.00.
For the molecule B17, the “Fold change” value was 1.32.
Regarding B18, the “Fold change” value amounted to 1.18.
The figure for B19 is 1.29; for B20 it is 1.11.
For B21 the value was 0.92; for B22, 0.94.
The figure for B23 is 1.08; for B24 it is 0.90.
As for B25, the “Fold change” value was 1.02.
For B26 the value was 1.03; for B27, 1.11.
Regarding B28, the “Fold change” value came out at 0.92.
The figure for B29 is 0.98; for B30 it is 1.15; for B31 it is 0.97.
Take B32: the “Fold change” value came to 1.26.
